Laboratory results from article PMC2172930.

Biological target: p85, the regulatory subunit of PI3-kinase (mouse (endogenous in NIH3T3)) (UniProt P26450)
Assay: co-IP

Sequence of UniProt P26450 (P26450 whole entry): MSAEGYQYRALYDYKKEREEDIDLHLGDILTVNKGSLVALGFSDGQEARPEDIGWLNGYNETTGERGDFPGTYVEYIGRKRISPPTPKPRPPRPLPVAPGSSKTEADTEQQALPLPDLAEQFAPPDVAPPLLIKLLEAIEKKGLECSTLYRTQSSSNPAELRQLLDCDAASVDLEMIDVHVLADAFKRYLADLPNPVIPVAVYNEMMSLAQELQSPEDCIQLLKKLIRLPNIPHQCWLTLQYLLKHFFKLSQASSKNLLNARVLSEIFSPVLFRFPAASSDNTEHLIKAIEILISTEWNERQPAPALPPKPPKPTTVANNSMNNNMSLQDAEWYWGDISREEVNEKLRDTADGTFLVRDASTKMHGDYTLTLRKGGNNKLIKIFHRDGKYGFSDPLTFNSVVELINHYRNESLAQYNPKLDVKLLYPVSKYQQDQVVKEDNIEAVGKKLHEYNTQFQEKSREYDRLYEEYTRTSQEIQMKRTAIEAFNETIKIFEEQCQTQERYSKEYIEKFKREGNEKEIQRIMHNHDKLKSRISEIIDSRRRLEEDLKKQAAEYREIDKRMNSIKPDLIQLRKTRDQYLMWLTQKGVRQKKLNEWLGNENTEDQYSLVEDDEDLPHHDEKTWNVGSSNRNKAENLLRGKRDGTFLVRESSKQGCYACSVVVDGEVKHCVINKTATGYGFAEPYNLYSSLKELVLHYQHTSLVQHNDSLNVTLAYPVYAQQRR

In the case of “androgen receptor (110-kD classical murine AR of NIH3T3 cells) (from UniProt P19091 1-899)”, the increase of AR/p85 association on 0.001 nM R1881 against unstimulated cells is reported as 38%.
